Measurements from PMC5737856 (Nucleic Acids Research, 2017).
Each block holds one binder with its values, some of them ahead of it.

B5: BEN domain 1 of BEND3 (domain or fragment, human)
chain: MVAKFQPPPEYQLTAAELKQIVDQSLSGGDLACRLLVQLFPELFSDVDFSRGCSACGFAAKRKLESLHLQLIRNYVEVYYPSVKDTAVWQAECLPQLNDFFSRFWAQREMED

Assays:
SEC + native gel or EMSA = target: the molecule itself; assay: SEC + native gel or EMSA
[1] = target: T1, PICH, full length (recombinant) (human, UniProt Q2NKX8 1-1250); assay: SPR
T1 sequence (looked up): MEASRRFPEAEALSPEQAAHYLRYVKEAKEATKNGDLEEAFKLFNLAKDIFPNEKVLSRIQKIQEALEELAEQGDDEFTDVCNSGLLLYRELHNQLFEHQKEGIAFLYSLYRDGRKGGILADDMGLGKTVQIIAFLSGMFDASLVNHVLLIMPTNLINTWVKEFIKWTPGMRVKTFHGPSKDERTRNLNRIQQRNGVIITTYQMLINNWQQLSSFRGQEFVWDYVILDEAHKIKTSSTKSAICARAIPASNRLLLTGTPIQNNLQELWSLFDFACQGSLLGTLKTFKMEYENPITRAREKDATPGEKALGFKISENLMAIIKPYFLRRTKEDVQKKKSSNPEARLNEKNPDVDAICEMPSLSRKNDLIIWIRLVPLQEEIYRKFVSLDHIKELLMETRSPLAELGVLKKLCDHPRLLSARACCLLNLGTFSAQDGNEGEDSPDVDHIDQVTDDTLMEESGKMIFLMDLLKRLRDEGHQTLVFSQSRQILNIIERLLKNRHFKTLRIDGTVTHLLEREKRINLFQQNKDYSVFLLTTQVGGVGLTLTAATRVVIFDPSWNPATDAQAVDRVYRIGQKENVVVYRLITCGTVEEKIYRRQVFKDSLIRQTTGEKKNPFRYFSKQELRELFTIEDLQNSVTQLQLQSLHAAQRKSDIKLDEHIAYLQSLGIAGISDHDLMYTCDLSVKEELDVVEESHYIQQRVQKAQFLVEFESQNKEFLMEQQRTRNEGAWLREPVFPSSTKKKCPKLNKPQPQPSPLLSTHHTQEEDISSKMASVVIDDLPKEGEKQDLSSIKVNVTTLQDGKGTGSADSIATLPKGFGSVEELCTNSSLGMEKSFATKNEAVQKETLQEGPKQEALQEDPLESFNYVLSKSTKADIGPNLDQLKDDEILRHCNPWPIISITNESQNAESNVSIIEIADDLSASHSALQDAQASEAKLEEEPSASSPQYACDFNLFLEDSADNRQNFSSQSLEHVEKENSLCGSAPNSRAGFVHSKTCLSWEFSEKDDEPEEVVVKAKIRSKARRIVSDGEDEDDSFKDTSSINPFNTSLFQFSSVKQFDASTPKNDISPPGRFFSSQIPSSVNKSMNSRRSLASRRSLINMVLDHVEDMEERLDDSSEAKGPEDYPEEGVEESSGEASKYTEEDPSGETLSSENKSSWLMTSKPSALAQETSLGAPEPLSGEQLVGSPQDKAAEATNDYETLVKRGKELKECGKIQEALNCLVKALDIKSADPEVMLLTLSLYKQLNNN

BEN domain 1 of BEND3 = target: B5; assay: MST
[2] = target: T2, catalytic SNF2/HELIC region of PICH (human); assay: MST
T2 sequence (Q2NKX8 whole entry, looked up): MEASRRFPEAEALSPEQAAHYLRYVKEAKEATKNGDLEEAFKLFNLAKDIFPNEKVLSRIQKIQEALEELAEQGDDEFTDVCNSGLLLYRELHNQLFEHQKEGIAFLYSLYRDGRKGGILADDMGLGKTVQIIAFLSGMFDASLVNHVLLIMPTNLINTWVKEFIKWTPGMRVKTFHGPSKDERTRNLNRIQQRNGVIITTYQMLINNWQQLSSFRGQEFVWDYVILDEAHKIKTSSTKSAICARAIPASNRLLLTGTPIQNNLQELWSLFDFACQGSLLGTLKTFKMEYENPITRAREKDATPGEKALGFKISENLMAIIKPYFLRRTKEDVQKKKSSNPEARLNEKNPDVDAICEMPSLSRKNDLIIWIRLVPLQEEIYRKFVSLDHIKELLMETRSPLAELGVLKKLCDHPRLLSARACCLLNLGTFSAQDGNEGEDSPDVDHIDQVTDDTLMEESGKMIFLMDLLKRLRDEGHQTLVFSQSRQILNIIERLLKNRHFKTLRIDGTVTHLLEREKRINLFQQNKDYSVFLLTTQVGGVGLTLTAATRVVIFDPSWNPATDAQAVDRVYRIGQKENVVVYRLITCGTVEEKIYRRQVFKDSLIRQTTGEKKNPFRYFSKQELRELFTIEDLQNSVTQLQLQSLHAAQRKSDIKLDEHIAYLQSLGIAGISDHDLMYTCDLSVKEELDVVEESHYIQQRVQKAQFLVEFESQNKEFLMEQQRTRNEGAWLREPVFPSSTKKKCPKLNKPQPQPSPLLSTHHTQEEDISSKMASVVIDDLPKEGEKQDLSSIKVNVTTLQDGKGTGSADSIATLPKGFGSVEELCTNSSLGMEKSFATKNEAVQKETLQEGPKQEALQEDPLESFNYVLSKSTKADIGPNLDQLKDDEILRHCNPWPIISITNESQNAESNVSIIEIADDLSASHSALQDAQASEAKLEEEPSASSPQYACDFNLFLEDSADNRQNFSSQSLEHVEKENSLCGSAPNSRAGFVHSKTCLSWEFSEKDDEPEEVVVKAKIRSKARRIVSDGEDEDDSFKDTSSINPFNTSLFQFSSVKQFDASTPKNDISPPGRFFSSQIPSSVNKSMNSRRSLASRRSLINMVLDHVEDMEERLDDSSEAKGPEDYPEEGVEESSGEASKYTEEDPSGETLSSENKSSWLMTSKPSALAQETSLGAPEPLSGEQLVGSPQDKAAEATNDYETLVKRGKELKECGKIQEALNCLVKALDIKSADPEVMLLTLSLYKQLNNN

[3] = target: T1, PICH, full length (recombinant); assay: MST

- Kd [1]: 700 ± 300 nM
B1: BEND3, full length (from HEK293 cells) (natural protein, human, UniProt Q5T5X7 1-828, looked up)
chain: MNSTEFTEDVEEVLKSITVKVETEAEDAALDCSVNSRTSEKHSVDSVLTALQDSSKRKQLVSDGLLDSVPGVKRRRLIPEALLAGMRNRENSSPCQGNGEQAGRGRSLGNVWPGEEEPCNDATTPSYKKPLYGISHKIMEKKNPPSGDLLNVYELFEKANASNSPSSLRLLNEPQKRDCGSTGAGTDNDPNIYFLIQKMFYMLNTLTSNMSQLHSKVDLLSLEVSRIKKQVSPTEMVAKFQPPPEYQLTAAELKQIVDQSLSGGDLACRLLVQLFPELFSDVDFSRGCSACGFAAKRKLESLHLQLIRNYVEVYYPSVKDTAVWQAECLPQLNDFFSRFWAQREMEDSQPSGQVASFFEAEQVDPGHFLDNKDQEEALSLDRSSTIASDHVVDTQDLTEFLDEASSPGEFAVFLLHRLFPELFDHRKLGEQYSCYGDGGKQELDPQRLQIIRNYTEIYFPDMQEEEAWLQQCAQRINDELEGLGLDAGSEGDPPRDDCYDSSSLPDDISVVKVEDSFEGERPGRRSKKIWLVPIDFDKLEIPQPDFEVPGADCLLSKEQLRSIYESSLSIGNFASRLLVHLFPELFTHENLRKQYNCSGSLGKKQLDPSRIKLIRHYVQLLYPRAKNDRVWTLEFVGKLDERCRRRDTEQRRSYQQQRKVHVPGPECRDLTSYAINPERFREEFEGPPLPPERSSKDFCKIPLDELVVPSPDFPVPSPYLLSDKEVREIVQQSLSVGNFAARLLVRLFPELFTAENLRLQYNHSGACNKKQLDPTRLRLIRHYVEAVYPVEKMEEVWHYECIPSIDERCRRPNRKKCDILKKAKKVEK
- stoichiometry N (SEC + native gel or EMSA): 8

- Kd (BEN domain 1 of BEND3): 1200 ± 250 nM
B3: N-terminal TPR motif of PICH (domain or fragment, human)
chain: AEALSPEQAAHYLRYVKEAKEATKNGDLEEAFKLFNLAKDIFPNEKVLSRIQKIQEA

- Kd [2]: 1500 nM
B4: BEN domain 3 of BEND3 (domain or fragment)
chain: VPGADCLLSKEQLRSIYESSLSIGNFASRLLVHLFPELFTHENLRKQYNCSGSLGKKQLDPSRIKLIRHYVQLLYPRAKNDRVWTLEFVGKLDERCRRRDTEQ

Further lines, the binder ahead of its results:

B2: isolated N-terminal region of BEND3 (residues 1-534) (domain or fragment, human, UniProt Q5T5X7 1-534, looked up)
chain: MNSTEFTEDVEEVLKSITVKVETEAEDAALDCSVNSRTSEKHSVDSVLTALQDSSKRKQLVSDGLLDSVPGVKRRRLIPEALLAGMRNRENSSPCQGNGEQAGRGRSLGNVWPGEEEPCNDATTPSYKKPLYGISHKIMEKKNPPSGDLLNVYELFEKANASNSPSSLRLLNEPQKRDCGSTGAGTDNDPNIYFLIQKMFYMLNTLTSNMSQLHSKVDLLSLEVSRIKKQVSPTEMVAKFQPPPEYQLTAAELKQIVDQSLSGGDLACRLLVQLFPELFSDVDFSRGCSACGFAAKRKLESLHLQLIRNYVEVYYPSVKDTAVWQAECLPQLNDFFSRFWAQREMEDSQPSGQVASFFEAEQVDPGHFLDNKDQEEALSLDRSSTIASDHVVDTQDLTEFLDEASSPGEFAVFLLHRLFPELFDHRKLGEQYSCYGDGGKQELDPQRLQIIRNYTEIYFPDMQEEEAWLQQCAQRINDELEGLGLDAGSEGDPPRDDCYDSSSLPDDISVVKVEDSFEGERPGRRSKKIWLVPI
- binding result (SEC + native gel or EMSA): binds

Binder: B5
- Kd [3]: 200 ± 250 nM
